The target in the assay is FPR-GFP fusion protein (human) (UniProt P21462). Description: flow cytometry, LRG assembly on DCNi G beads with 30 nM FPR-GFP.
FPR-GFP fusion protein (human), sequence (P21462 other isoform, or with tags, fused parts or gaps): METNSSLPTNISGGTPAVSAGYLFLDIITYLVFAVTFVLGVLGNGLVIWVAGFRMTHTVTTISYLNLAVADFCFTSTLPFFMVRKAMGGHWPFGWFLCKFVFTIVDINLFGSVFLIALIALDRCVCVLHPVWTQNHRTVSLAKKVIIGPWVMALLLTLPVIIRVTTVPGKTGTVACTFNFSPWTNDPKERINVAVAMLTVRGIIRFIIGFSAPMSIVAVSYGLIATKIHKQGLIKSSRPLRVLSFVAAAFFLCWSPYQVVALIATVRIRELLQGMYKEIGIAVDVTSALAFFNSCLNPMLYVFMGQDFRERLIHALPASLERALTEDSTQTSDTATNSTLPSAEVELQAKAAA

fML (peptide) returned a concentration for a half-maximal effect (EC50) of 5.3 µM.

Usually EC50 stands for the concentration at which the effect is half-maximal. A low value points to higher potency in that assay.

These data come from patent publication US20030235863A1.
